Reference: patent publication US20250152729A1 (CANCER RESEARCH TECHNOLOGY, published 2025)

T1: cynomolgus SEMA4A expressed on expi293 cells (UniProt ID G7NV79) (cynomolgus, UniProt Q9H3S1 33-761 (human entry))
T1 construct: Transient transfection in expi293 cells; also called cyno SEMA4A
T1 chain: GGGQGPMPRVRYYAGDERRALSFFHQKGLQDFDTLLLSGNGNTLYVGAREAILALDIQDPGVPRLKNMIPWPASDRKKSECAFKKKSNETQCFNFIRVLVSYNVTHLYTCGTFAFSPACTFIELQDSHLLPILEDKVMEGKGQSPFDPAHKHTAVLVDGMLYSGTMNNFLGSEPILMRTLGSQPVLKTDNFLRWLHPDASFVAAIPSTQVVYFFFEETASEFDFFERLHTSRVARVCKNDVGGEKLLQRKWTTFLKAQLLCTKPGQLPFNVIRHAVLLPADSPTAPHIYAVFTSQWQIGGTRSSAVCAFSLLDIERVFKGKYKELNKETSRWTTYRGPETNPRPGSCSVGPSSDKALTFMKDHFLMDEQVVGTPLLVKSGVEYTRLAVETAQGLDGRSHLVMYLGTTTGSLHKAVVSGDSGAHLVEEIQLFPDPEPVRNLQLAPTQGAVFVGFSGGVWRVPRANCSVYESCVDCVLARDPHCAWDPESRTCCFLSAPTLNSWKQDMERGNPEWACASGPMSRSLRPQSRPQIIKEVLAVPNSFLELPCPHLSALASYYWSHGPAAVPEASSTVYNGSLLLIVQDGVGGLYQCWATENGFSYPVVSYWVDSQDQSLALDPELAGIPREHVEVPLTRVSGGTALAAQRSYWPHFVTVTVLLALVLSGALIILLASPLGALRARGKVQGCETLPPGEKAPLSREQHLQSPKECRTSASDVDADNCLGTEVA


Target: T1, cynomolgus SEMA4A expressed on expi293 …
Test: Mirrorball direct binding, dilution series on expi293 cells transiently transfected with cyno SEMA4A, anti-human Alexa Fluor 647
Text: Hits from the primary screening were re-formatted into the human Alya IgG1 vector and re-expressed and purified as described in section 4.1. In addition, a single clone was identified that contained an Asparagine deamidation motif (Asn Gly) within its VHCDR2. This potential sequence liability was de-risked by synthesising de novo two clonal variant VH genes (Asn Ala and Gln Gly) and cloning these sequences into the human Alya IgG1 expression vector. To determine the specificity profile of each purified human Alya IgG1, a dilution series was tested for binding to human SEMA4A, mouse SEMA4A, cyno SEMA4A, human SEMA4B and mock transfected cells (transient transfections set up in expi 293 cells.) The five assays employed methods described in section 2.3, using the appropriate cells and substituting the un-purified scFv periplasmic preparation with the recombinant human Alya IgG1 dilution series. Data was analysed as Count x median mean intensity (x FLU).

Binder	binding result
5Hg4-5Lg2 human Alya IgG1 (antibody, V domains shown, Humanised 5E3; human IgG1 Alya constant (239iCys, S442C, EU), lambda light chain; purified, unconjugated) VH: QVQLVQSGSELKKPGASVKVSCKASGYTFTDYWMHWVRQAPGQGLEWMGAIDTSDSYTSYNQKFKGRFVFSLDTSVSTAYLQICSLKAEDTAVYYCARDYGNFYYYAMDYWGQGTLVTVSS VL: QAVVTQEPSLTVSPGGTVTLTCRSSTGAVTTSNYANWFQQKPGQAPRTLIYGTNNRAPWTPARFSGSLLGGKAALTLLGAQPEDEAEYYCALWYSNHWVFGGGTKLTVL	binds
5Hg5-5Lg2 human Alya IgG1 (antibody, V domains shown, Humanised 5E3; human IgG1 Alya constant (239iCys, S442C, EU), lambda light chain; purified, unconjugated; also called 5HE5/5Lg2) VH: EVQLVQSGAEVKKPGESLRISCKGSGYSFTDYWMHWVRQMPGKGLEWMGAIDTSDSYTSYNQKFKGQVTISADKSISTAYLQWSSLKASDTAMYYCARDYGNFYYYAMDYWGQGTLVTVSS VL: QAVVTQEPSLTVSPGGTVTLTCRSSTGAVTTSNYANWFQQKPGQAPRTLIYGTNNRAPWTPARFSGSLLGGKAALTLLGAQPEDEAEYYCALWYSNHWVFGGGTKLTVL	binds
5Hg2-5Lg6 human Alya IgG1 (antibody, V domains shown, Humanised 5E3; human IgG1 Alya constant (239iCys, S442C, EU), lambda light chain; purified, unconjugated) VH: QVQLVQSGAEVKKPGASVKVSCKASGYTFTDYWMHWVRQAPGQRLEWMGAIDTSDSYTSYNQKFKGRVTITRDTSASTAYMELSSLRSEDTAVYYCARDYGNFYYYAMDYWGQGTLVTVSS VL: SYELTQPSSVSVSPGQTARITCRSSTGAVTTSNYANWFQQKPGQAPVLVIYGTNNRAPGIPERFSGSSSGTTVTLTISGAQVEDEADYYCALWYSNHWVFGGGTKLTVL	binds
